± gives the uncertainty stated by the source.
Experiment: abundance fitness (aPCA) (normalised: wild type 0, dead -1); higher = more abundant; growth selection in yeast, the domain comes from the species named
Conditions: Homo sapiens

Substance	abundance fitness
Scaffold attachment factor B2 T49E, Q14151	-0.26 ± 0.094
Scaffold attachment factor B2 E32N, Q14151	0.078 ± 0.35
Scaffold attachment factor B2 G50C, Q14151	-0.082 ± 0.12
Scaffold attachment factor B2 R45H, Q14151	-0.721 ± 0.23
Scaffold attachment factor B2 K65H, Q14151	0.463 ± 0.23
Tyrosine-protein kinase Lck I67A, P06239	-0.465 ± 0.1
Scaffold attachment factor B2 D70A, Q14151	0.141 ± 0.14
Tyrosine-protein kinase Lck I67T, P06239	0.151 ± 0.16
Scaffold attachment factor B2 V35M, Q14151	-0.236 ± 0.12
Scaffold attachment factor B2 R45Q, Q14151	-0.326 ± 0.091
Scaffold attachment factor B2 L33R, Q14151	-0.331 ± 0.075
Scaffold attachment factor B2 A63S, Q14151	-0.367 ± 0.13
Scaffold attachment factor B2 L56F, Q14151	-0.816 ± 0.12
Scaffold attachment factor B2 R28N, Q14151	-0.005 ± 0.15
Tyrosine-protein kinase Lck K99L, P06239	-0.125 ± 0.074
Scaffold attachment factor B2 G51M, Q14151	-0.853 ± 0.12
Tyrosine-protein kinase Lck I67R, P06239	-0.263 ± 0.097
Scaffold attachment factor B2 R59N, Q14151	-0.623 ± 0.32
Scaffold attachment factor B2 N46S, Q14151	-0.135 ± 0.088
Scaffold attachment factor B2 L42M, Q14151	-0.505 ± 0.16
Scaffold attachment factor B2 M57K, Q14151	-0.473 ± 0.13
Scaffold attachment factor B2 D70F, Q14151	-0.431 ± 0.15

Substance	abundance fitness
Scaffold attachment factor B2 E66C, Q14151	-0.157 ± 0.13
Scaffold attachment factor B2 R59K, Q14151	-0.41 ± 0.19
Scaffold attachment factor B2 D37V, Q14151	-0.651 ± 0.088
Scaffold attachment factor B2 K61L, Q14151	-0.282 ± 0.083
Scaffold attachment factor B2 A63R, Q14151	-0.433 ± 0.089
Scaffold attachment factor B2 K44Y, Q14151	-0.494 ± 0.15
Scaffold attachment factor B2 R45P, Q14151	-0.682 ± 0.11
Scaffold attachment factor B2 R29E, Q14151	0.113 ± 0.095
Scaffold attachment factor B2 R28H, Q14151	0.063 ± 0.2
Scaffold attachment factor B2 D70E, Q14151	0.125 ± 0.12
Scaffold attachment factor B2 K43C, Q14151	-0.271 ± 0.12
Scaffold attachment factor B2 R59L, Q14151	-0.771 ± 0.1
Scaffold attachment factor B2 V35Q, Q14151	-0.431 ± 0.1
Scaffold attachment factor B2 K61A, Q14151	0.022 ± 0.084
Scaffold attachment factor B2 R29S, Q14151	-0.097 ± 0.1
Scaffold attachment factor B2 E41W, Q14151	-1.02 ± 0.23
Scaffold attachment factor B2 E32R, Q14151	-0.431 ± 0.087
Scaffold attachment factor B2 E32F, Q14151	-0.873 ± 0.27
Scaffold attachment factor B2 G68E, Q14151	0.166 ± 0.095
Scaffold attachment factor B2 I36M, Q14151	0.043 ± 0.17
Scaffold attachment factor B2 K62Y, Q14151	-0.447 ± 0.37
Scaffold attachment factor B2 R34A, Q14151	0.049 ± 0.079

Substance	abundance fitness
Scaffold attachment factor B2 K53N, Q14151	-0.463 ± 0.14
Scaffold attachment factor B2 L30S, Q14151	-0.233 ± 0.095
Scaffold attachment factor B2 T49N, Q14151	-0.807 ± 0.43
Scaffold attachment factor B2 L33W, Q14151	-0.103 ± 0.096
Scaffold attachment factor B2 R29T, Q14151	-0.01 ± 0.16
Scaffold attachment factor B2 L56K, Q14151	-0.524 ± 0.096
Scaffold attachment factor B2 E67A, Q14151	-0.23 ± 0.12
Scaffold attachment factor B2 M57H, Q14151	-0.392 ± 0.14
Scaffold attachment factor B2 S54W, Q14151	-0.261 ± 0.18
Scaffold attachment factor B2 I36L, Q14151	-0.103 ± 0.087
Tyrosine-protein kinase Lck D77E, P06239	-0.02 ± 0.13
Scaffold attachment factor B2 M57V, Q14151	-0.189 ± 0.08
Scaffold attachment factor B2 D37S, Q14151	-0.556 ± 0.1
Scaffold attachment factor B2 N52L, Q14151	-0.511 ± 0.081
Scaffold attachment factor B2 K43I, Q14151	-0.599 ± 0.17
Scaffold attachment factor B2 L30P, Q14151	-0.451 ± 0.14
Scaffold attachment factor B2 L33C, Q14151	-0.758 ± 0.12
Scaffold attachment factor B2 D48L, Q14151	-0.513 ± 0.094
Scaffold attachment factor B2 R45G, Q14151	-0.486 ± 0.08
Scaffold attachment factor B2 N46M, Q14151	-0.394 ± 0.17
Scaffold attachment factor B2 K43Q, Q14151	-0.124 ± 0.096
Scaffold attachment factor B2 L30M, Q14151	-0.036 ± 0.12

Substance	abundance fitness
Scaffold attachment factor B2 D37N, Q14151	-0.883 ± 0.23
Scaffold attachment factor B2 A63V, Q14151	-0.175 ± 0.11
Scaffold attachment factor B2 E58L, Q14151	-0.439 ± 0.077
Scaffold attachment factor B2 M57T, Q14151	-0.363 ± 0.1
Scaffold attachment factor B2 L60F, Q14151	-0.448 ± 0.16
Scaffold attachment factor B2 V64K, Q14151	-0.035 ± 0.14
Scaffold attachment factor B2 T49W, Q14151	-0.365 ± 0.1
Scaffold attachment factor B2 E58Q, Q14151	-0.319 ± 0.11
Scaffold attachment factor B2 K62V, Q14151	-0.163 ± 0.1
Scaffold attachment factor B2 R59W, Q14151	-1.25 ± 0.15
Scaffold attachment factor B2 M57L, Q14151	-0.088 ± 0.11
Scaffold attachment factor B2 R34S, Q14151	0.14 ± 0.087
Scaffold attachment factor B2 E32K, Q14151	-0.355 ± 0.23
Scaffold attachment factor B2 I36P, Q14151	0.067 ± 0.096
Scaffold attachment factor B2 K44A, Q14151	-0.067 ± 0.08
Scaffold attachment factor B2 S31Q, Q14151	-0.311 ± 0.095
Scaffold attachment factor B2 S31F, Q14151	-0.488 ± 0.16
Scaffold attachment factor B2 E66M, Q14151	-0.329 ± 0.12
Tyrosine-protein kinase Lck I67F, P06239	-0.102 ± 0.16
Scaffold attachment factor B2 A40D, Q14151	-0.409 ± 0.25
Scaffold attachment factor B2 L47R, Q14151	-0.524 ± 0.076
Scaffold attachment factor B2 L38C, Q14151	-0.532 ± 0.1

Substance	abundance fitness
Scaffold attachment factor B2 I36F, Q14151	-0.507 ± 0.17
Scaffold attachment factor B2 K62N, Q14151	-0.246 ± 0.14
Scaffold attachment factor B2 A63W, Q14151	-0.63 ± 0.11
Scaffold attachment factor B2 T27S, Q14151	-0.175 ± 0.13
Scaffold attachment factor B2 G68V, Q14151	-0.169 ± 0.092
Tyrosine-protein kinase Lck H76T, P06239	-0.17 ± 0.1
Scaffold attachment factor B2 L56N, Q14151	-1.2 ± 0.43
Scaffold attachment factor B2 N46G, Q14151	0.006 ± 0.084
Scaffold attachment factor B2 S54T, Q14151	0.073 ± 0.11
Scaffold attachment factor B2 G68M, Q14151	-0.33 ± 0.12
Scaffold attachment factor B2 R59P, Q14151	-0.249 ± 0.094
Scaffold attachment factor B2 A63E, Q14151	-0.325 ± 0.12
Scaffold attachment factor B2 L33T, Q14151	-0.268 ± 0.1
Tyrosine-protein kinase Lck I67C, P06239	-0.193 ± 0.12
Scaffold attachment factor B2 E32L, Q14151	-0.543 ± 0.1
Scaffold attachment factor B2 L38T, Q14151	-0.544 ± 0.099
Scaffold attachment factor B2 S54Y, Q14151	-0.358 ± 0.27
Scaffold attachment factor B2 L38P, Q14151	-0.637 ± 0.1
Scaffold attachment factor B2 L56G, Q14151	-0.285 ± 0.079
Tyrosine-protein kinase Lck E96D, P06239	0.069 ± 0.16
Scaffold attachment factor B2 K61P, Q14151	-0.203 ± 0.13
Scaffold attachment factor B2 E66V, Q14151	-0.232 ± 0.1

— the Human Domainome abundance scans (Beltran et al. 2025)
